Results from patent US20210403864A1, “METHODS AND COMPOSITIONS FOR TREATING ACTIVATED G-ALPHA Q MUTANT CANCERS OR MELANOCYTIC MALIGNANCIES” (Memorial Sloan Kettering Cancer Center, priority 2018, published 2021).

Key:
[1] = test system: human Mel202 uveal melanoma xenografts; experiment: In vivo anti-tumor activity, xenografts in SCID mice; conditions: MEK162 10 mg/kg P.O. b.i.d.; YM-254890 2.5 mg/kg i.p. q.d.; over 20 days; single agents vs vehicle, combination vs vehicle and single agents
Protocol: To evaluate the effect of YM-254890 and binimetinib (MEK162) in vivo, Mel202 uveal melanoma xenografts were established in SCID mice, and the mice were treated with vehicle only, 10 mg/kg MEK162 (P.O., b.i.d.), YM-254890 (2.5 mg/kg i.p., q.d.) or a combination of MEK162 and YM-254890. Tumor volumes were measured over 20 days.

[2] = molecular target: GNAQ^Q209L (human GNAQ α-subunit, Q209L mutant) (human) (UniProt P50148); experiment: cell-based or functional assay
[3] = molecular target: GNAQ^Q209L/P (endogenous, in three human UVM cell lines) (human) (UniProt P50148); experiment: cell-based or functional assay
[4] = molecular target: GNAQ^R183Q (human GNAQ α-subunit, R183Q mutant) (human) (UniProt P50148); experiment: cell-based or functional assay
GNAQ^R183Q (human GNAQ α-subunit, R183Q mutant) (human), sequence (P50148 whole entry R183Q): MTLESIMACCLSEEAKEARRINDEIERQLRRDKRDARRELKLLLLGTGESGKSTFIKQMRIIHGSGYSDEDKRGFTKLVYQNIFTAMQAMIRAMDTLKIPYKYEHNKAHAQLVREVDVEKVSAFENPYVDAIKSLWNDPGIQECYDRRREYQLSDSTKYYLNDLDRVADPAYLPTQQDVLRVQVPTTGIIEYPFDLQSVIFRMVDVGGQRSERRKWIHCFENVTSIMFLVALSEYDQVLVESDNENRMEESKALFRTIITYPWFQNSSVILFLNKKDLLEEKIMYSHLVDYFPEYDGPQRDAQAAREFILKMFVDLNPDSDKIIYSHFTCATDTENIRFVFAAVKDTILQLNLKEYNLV

GNAQ^Q209L (human GNAQ α-subunit, Q209L mutant) (human), sequence (P50148 whole entry Q209L): as the sequence (P50148 whole entry R183Q) above, with Q183R, Q209L counted along it

| Molecule | tumor volume [1] | IP1 accumulation, mutant-transformed melan-a cells, 24-hour treatment (fold less sensitive) [2] | IC50 of cell proliferation, human UVM cell lines (CellTiter-glo 2.0, 5 days) [3] | IP1 accumulation after 24-hour treatment with variable doses of YM, transfected HEK293T cells (fold less sensitive) [4] | IP1 accumulation, mutant-transformed melan-a cells, 24-hour treatment (fold less sensitive) [4] |
| --- | --- | --- | --- | --- | --- |
| Cn1cnc2c(F)c(Nc3ccc(Br)cc3F)c(C(=O)NOCCO)cc21 [MEK162, binimetinib] | moderate reduction |  |  |  |  |
| YM-254890 (peptide) |  | 10 | 100 nM | 20 | 10 |
